Substitutions are numbered along the chain they refer to.
Key:
Experiment in all cases: SPR, vs GpH7-A5/GpH7-B3/GpL16-k0 =100
[1] = biological target: T1, FcγRIa extracellular domain, His-tagged (human, UniProt P12314 16-292)
T1 construct: extracellular domain; also called 1a

[2] = biological target: T2, FcγRIIa(R) extracellular domain, His-tagged (human, UniProt P12318 34-217)
T2 construct: extracellular domain; also called 2aR
T2 sequence: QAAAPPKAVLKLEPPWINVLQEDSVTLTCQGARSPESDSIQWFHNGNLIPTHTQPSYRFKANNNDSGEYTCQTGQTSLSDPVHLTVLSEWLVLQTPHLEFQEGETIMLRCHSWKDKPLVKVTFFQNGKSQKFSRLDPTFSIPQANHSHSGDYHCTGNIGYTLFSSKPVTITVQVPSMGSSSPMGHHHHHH

[3] = biological target: T3, FcγRIIa(H) extracellular domain, His-tagged (human, UniProt P12318 34-217)
T3 construct: extracellular domain; also called 2aH
T3 sequence: T2 sequence with R134H

[4] = biological target: T4, FcγRIIb extracellular domain, His-tagged (human, UniProt P31994 43-217)
T4 construct: extracellular domain; also called 2b
T4 sequence: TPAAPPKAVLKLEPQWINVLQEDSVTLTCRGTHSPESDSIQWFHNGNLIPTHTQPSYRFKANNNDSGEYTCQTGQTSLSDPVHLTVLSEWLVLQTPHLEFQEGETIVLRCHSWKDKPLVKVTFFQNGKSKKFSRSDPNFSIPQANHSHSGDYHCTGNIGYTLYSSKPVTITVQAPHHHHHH

[5] = biological target: T5, FcγRIIIa extracellular domain, His-tagged (human, UniProt P08637 17-208)
T5 construct: extracellular domain; also called 3a
T5 sequence (P08637 other isoform, or with tags, fused parts or gaps): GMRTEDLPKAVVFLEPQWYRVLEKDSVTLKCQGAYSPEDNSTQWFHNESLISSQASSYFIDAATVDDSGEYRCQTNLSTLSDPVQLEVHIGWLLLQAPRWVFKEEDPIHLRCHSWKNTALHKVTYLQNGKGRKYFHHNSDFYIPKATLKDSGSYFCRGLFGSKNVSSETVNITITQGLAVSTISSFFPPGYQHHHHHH

T1 sequence (P12314 other isoform, or with tags, fused parts or gaps): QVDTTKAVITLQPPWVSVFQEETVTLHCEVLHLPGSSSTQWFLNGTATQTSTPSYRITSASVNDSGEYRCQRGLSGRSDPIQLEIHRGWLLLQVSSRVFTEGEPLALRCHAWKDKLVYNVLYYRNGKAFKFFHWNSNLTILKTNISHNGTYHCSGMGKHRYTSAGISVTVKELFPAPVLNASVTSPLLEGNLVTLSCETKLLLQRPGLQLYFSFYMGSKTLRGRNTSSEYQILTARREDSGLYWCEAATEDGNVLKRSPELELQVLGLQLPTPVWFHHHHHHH

B1: GpH7-A5/GpH7-B3 variant L234_02A/GpL16-k0 (antibody, human IgG1, kappa)
heavy 1: not shown
heavy 2: not shown
light: DIVMTQSPLSLPVTPGEPASISCQASESLVHSNRNTYLHWYLQKPGQSPQLLIYKVSNRFSGVPDRFSGSGSGTDFTLKISRVEAEDVGVYYCSQNTHVPPTFGQGTKVEIERTVAAPSVFIFPPSDEQLKSGTASVVCLLNNFYPREAKVQWKVDNALQSGNSQESVTEQDSKDSTYSLSSTLTLSKADYEKHKVYACEVTHQGLSSPVTKSFNRGEC
[1]
  He/Con 1a: 101 % of control
[2]
  He/Con 2aR: 92.5 % of control
[3]
  He/Con 2aH: 90.1 % of control
[4]
  He/Con 2b: 74.1 % of control
[5]
  He/Con 3a: 69.7 % of control

B2: GpH7-A5/GpH7-B3 variant L234_07I/GpL16-k0 (antibody, human IgG1, kappa)
heavy 1: not shown
heavy 2: not shown
light: B1 light
[1]
  He/Con 1a: 106 % of control
[2]
  He/Con 2aR: 110 % of control
[3]
  He/Con 2aH: 101 % of control
[4]
  He/Con 2b: 92.3 % of control
[5]
  He/Con 3a: 99.5 % of control

B3: GpH7-A5/GpH7-B3 variant L234_13S/GpL16-k0 (antibody, human IgG1, kappa)
heavy 1: not shown
heavy 2: not shown
light: B1 light
[1]
  He/Con 1a: 100 % of control
[2]
  He/Con 2aR: 82.6 % of control
[3]
  He/Con 2aH: 89.4 % of control
[4]
  He/Con 2b: 67.7 % of control
[5]
  He/Con 3a: 68.1 % of control

B4: GpH7-A5/GpH7-B3 variant L234_03V/GpL16-k0 (antibody, human IgG1, kappa)
heavy 1: not shown
heavy 2: not shown
light: B1 light
[1]
  He/Con 1a: 108 % of control
[2]
  He/Con 2aR: 99 % of control
[3]
  He/Con 2aH: 94.4 % of control
[4]
  He/Con 2b: 83.4 % of control
[5]
  He/Con 3a: 88.3 % of control

B5: GpH7-A5/GpH7-B3 variant L234_09D/GpL16-k0 (antibody, human IgG1, kappa)
heavy 1: not shown
heavy 2: not shown
light: B1 light
[1]
  He/Con 1a: 101 % of control
[2]
  He/Con 2aR: 142 % of control
[3]
  He/Con 2aH: 100 % of control
[4]
  He/Con 2b: 172 % of control
[5]
  He/Con 3a: 113 % of control

B6: GpH7-A5/GpH7-B3 variant L234_10E/GpL16-k0 (antibody, human IgG1, kappa)
heavy 1: not shown
heavy 2: not shown
light: B1 light
[1]
  He/Con 1a: 104 % of control
[2]
  He/Con 2aR: 130 % of control
[3]
  He/Con 2aH: 98.2 % of control
[4]
  He/Con 2b: 134 % of control
[5]
  He/Con 3a: 111 % of control

B7: GpH7-A5/GpH7-B3 variant L234_14T/GpL16-k0 (antibody, human IgG1, kappa)
heavy 1: not shown
heavy 2: not shown
light: B1 light
[1]
  He/Con 1a: 102 % of control
[2]
  He/Con 2aR: 90 % of control
[3]
  He/Con 2aH: 86.8 % of control
[4]
  He/Con 2b: 71.4 % of control
[5]
  He/Con 3a: 69.8 % of control

B8: GpH7-A5/GpH7-B3 variant L234_15Y/GpL16-k0 (antibody, human IgG1, kappa)
heavy 1: not shown
heavy 2: not shown
light: B1 light
[1]
  He/Con 1a: 103 % of control
[2]
  He/Con 2aR: 113 % of control
[3]
  He/Con 2aH: 134 % of control
[4]
  He/Con 2b: 110 % of control
[5]
  He/Con 3a: 126 % of control

B9: GpH7-A5/GpH7-B3 variant L234_06M/GpL16-k0 (antibody, human IgG1, kappa)
heavy 1: not shown
heavy 2: not shown
light: B1 light
[1]
  He/Con 1a: 107 % of control
[2]
  He/Con 2aR: 109 % of control
[3]
  He/Con 2aH: 96.4 % of control
[4]
  He/Con 2b: 89.6 % of control
[5]
  He/Con 3a: 82.9 % of control

B10: GpH7-A5/GpH7-B3 variant L234_05P/GpL16-k0 (antibody, human IgG1, kappa)
heavy 1: not shown
heavy 2: not shown
light: B1 light
[1]
  He/Con 1a: 103 % of control
[2]
  He/Con 2aR: 104 % of control
[3]
  He/Con 2aH: 104 % of control
[4]
  He/Con 2b: 83.2 % of control
[5]
  He/Con 3a: 85.1 % of control

B11: GpH7-A5/GpH7-B3 variant L234_04F/GpL16-k0 (antibody, human IgG1, kappa)
heavy 1: not shown
heavy 2: not shown
light: B1 light
[1]
  He/Con 1a: 104 % of control
[2]
  He/Con 2aR: 121 % of control
[3]
  He/Con 2aH: 133 % of control
[4]
  He/Con 2b: 114 % of control
[5]
  He/Con 3a: 114 % of control
